Experimental data taken from patent publication US9289468B2, “Fusion protein comprising circularly permuted form of trail/Apo2L, coding gene and use thereof” (Beijing Sunbio Biotech Co. Ltd., priority 2011, dated 2016).

How the values were obtained:
[1] = tested on: human multiple myeloma cell line U266; test: Combination with melphalan, cell survival (ATPlite); format: cell-based
Experimental: FIG. 9. […] U266 cells are insensitive to CPT. At the concentration of 1 μg/ml, NCPT-1.M1 alone has a mild killing effect on U266 (<20%), but with the presence of melphalan (12.5˜50 μg/ml), both of them can cause enhanced killing effect. The cell viability was assayed with ATPlite luminescent system (PerkinElmer), the data as shown in this figure are all represented as the mean±standard deviation, n=4, #P<0.05, ##P<0.01 vs. melphalan group; *P<0.05 vs. NCPT-1.M1 group.

[2] = tested on: human COLO 205 xenograft tumor; test: Inhibitory activity on human colon cancer xenograft tumors; format: in vivo, Balb/c nu mice
Experimental: 4 to 5 weeks old Balb/c nu mice ♂ (Institute of Experimental Animals, Chinese Academy of Medical Sciences) were subcutaneously inoculated with COLO 205 human colon tumor tissue pieces. When the tumor grew to the volume of 120 mm3, the tumor-bearing mice were divided into 4 groups (n=7/group), which were intraperitoneally injected with normal saline (negative control group), NCPT-1.M1 5 mg/kg, NCPT-1.M1 15 mg/kg and wtTRAIL 15 mg/kg once a day for 10 consecutive days. […] During the experiment, the tumor length diameter (a) and wide diameter (b) were measured every two days with a vernier caliper, and tumor volume (TV) was calculated according to the following formula: TV=½×a×b^2; From the above, the relative tumor volume (RTV) was calculated according to following formula: RTV=Vt/V0. Wherein V0 is the tumor volume measured on the day of the administration, but before administration (i.e., d0), and Vt is the tumor volume measured every time. The relative tumor proliferation rate T/C (%) is used as an evaluation index. Evaluation criteria: T/C (%)>40% means no effect; T/C (%)≦40% and the statistical significance of P<0.05 means being effective.
T/C %=RTVT/RTVC*100%. (RTVT: RTV of the treatment group; […]: RTV of the negative control group).

NCI-H460 cells = test: Assay of killing activity on lung cancer cell line (crystal violet, IC50); format: cell-based, human; details: for Ratio of IC50 of mutants to IC50 of CPT (H460 cells): 20-24 hours, crystal violet; for killing activity compared to that of CPT: based on IC50
Experimental: The NCI-H460 cells (ATCC) were cultured in flasks until logarithmic growth phase, digested with 0.25% trypsin (Amresco), collected by centrifugation (1000 rpm, 5 min), resuspended in RPMI1640 medium (Invitrogen) containing 3% fetal bovine serum (FBS), counted and adjusted to 1.5×10^5/ml cell suspension, added into 96-well culture plates (Nunc) at 100 μl/well, and incubated at 37° C. in 5% CO2 incubator overnight. The sample to be tested was diluted to a certain concentration with 1640 medium containing 3% FBS, and further diluted at 4-fold dilutions (8 dilutions). The supernatant in the culture plate was discarded, and serial dilutions of the sample to be tested was added into the plate at 100 μl/well with a negative control and blank control set aside, incubated at 37° C. under 5% CO2 for 20-24 hours. Following examination under microscope, the supernatant was discarded, each well was added 50 μl 0.05% crystal violet solution (50 mg crystal violet was dissolved in 20 ml anhydrous ethanol, and water was added to the volume of 100 ml, then stored at room temperature) and stained for 3-5 minutes. The crystal violet was carefully washed with flowing water, the remaining water was removed by spin-drying, a destaining solution (50 ml distilled water, 50 ml anhydrous ethanol, and 0.1 ml glacial acetic acid were thoroughly mixed and stored at room temperature) was added at 100 μl/well, then the reading at OD570 was measured on a microplate reader (Bio-Rad 680) (reference wavelength of 630 nm). The inhibitory concentration 50 (IC50) of each sample was calculated by a four-parameter Logistic fitting using Sigmaplot10.0 software. The IC50 for CPT and each mutant of NCPT-1, NCPT-2, and NCPT-3 were calculated, and the activity change of each mutant was represented as a ratio of the IC50 of each mutant to that of CPT (Table 1).

[3] = 15 mg/kg i.p. once a day for 10 days

Row | Molecule | Ratio of IC50 of mutants to IC50 of CPT (H460 cells) (NCI-H460 cells) | killing activity compared to that of CPT (NCI-H460 cells) | also measured
1 | N[C@@H](Cc1ccc(N(CCCl)CCCl)cc1)C(=O)O [melphalan, reference compound] | – | – | cell survival rate, melphalan alone ([1]; melphalan 12.5˜50 μg/ml, 48 h, U266B1): 11.9˜100.9%
2 | CPT: recombinant human circularly permuted TRAIL: amino acids 135-281, a linker, amino acids 122-135; SEQ ID NO: 1 (protein, CPT polypeptide sequence) TLSSPNSKNEKALGRKINSWESSRSGHSFLSNLHLRNGELVIHEKGFYYIYSQTYFRFQEEIKENTKNDKQMVQYIYKYTSYPDPILLMKSARNSCWSKDAEYGLYSIYQGGIFELKENDRIFVSVTNEHLIDMDHEASFFGAFLVGGGGGGVAAHITGTRGRSNT | – | – | sensitivity of the cell line ([1]; U266 / U266B1): insensitive
3 | wtTRAIL: wild-type TRAIL (protein, UniProt P50591 1-281, looked up) Tumor necrosis factor ligand …: MAMMEVQGGPSLGQTCVLIVIFTVLLQSLCVAVTYVYFTNELKQMQDKYSKSGIACFLKEDDSYWDPNDEESMNSPCWQVKWQLRQLVRKMILRTSEETISTVQEKQQNISPLVRERGPQRVAAHITGTRGRSNTLSSPNSKNEKALGRKINSWESSRSGHSFLSNLHLRNGELVIHEKGFYYIYSQTYFRFQEEIKENTKNDKQMVQYIYKYTSYPDPILLMKSARNSCWSKDAEYGLYSIYQGGIFELKENDRIFVSVTNEHLIDMDHEASFFGAFLVG | – | – | relative tumor volume RTV [2, 3]: 1.58; tumor proliferation rate T/C(%) [2, 3]: 33.98%; Tumor volume TV beginning ([2]; 15 mg/kg i.p. once a day for 10 days, beginning): 127 ± 38.3 mm^3; Tumor volume TV ending ([2]; 15 mg/kg i.p. once a day for 10 days, ending): 212 mm^3; efficacy compared with NCPT-1.M1 ([2]; 15 mg/kg, COLO 205 xenograft, P<0.05): significantly weaker than that of NCPT-1.M1 with the same dosage; evaluation of efficacy (T/C ≦40% and P<0.05 means being effective) ([2]; both dosage groups of NCPT-1.M1 (5, 15 mg/kg), wtTRAIL 15 mg/kg): effective
4 | NCPT-3.M12: MG+His6+NCPT-3, SEQ ID NO: 16 (protein, NCPT-3.M12 polypeptide sequence) MGHHHHHHTLSSPNSKNEKALGRKINSWESSRSGHSFLSNLHLRNGELVIHEKGFYYIYSQTYFRFQEEIKENTKNDKQMVQYIYKYTSYPDPILLMKSARNSCWSKDAEYGLYSIYQGGIFELKENDRIFVSVTNEHLIDMDHEASFFGAFLVGGGGGGVRERGPQRVAAHITGTRGRSNT | 0.38 | significantly higher than that of CPT | –
5 | NCPT-1.M7: MG+His9+NCPT-1, SEQ ID NO: 11 (protein, NCPT-1.M7 polypeptide sequence) MGHHHHHHHHHTLSSPNSKNEKALGRKINSWESSRSGHSFLSNLHLRNGELVIHEKGFYYIYSQTYFRFQEEIKENTKNDKQMVQYIYKYTSYPDPILLMKSARNSCWSKDAEYGLYSIYQGGIFELKENDRIFVSVTNEHLIDMDHEASFFGAFLVGGGGGGRVAAHITGTRGRSNT | 0.3 | significantly higher than that of CPT | –
6 | NCPT-2.M11: MG+His6+NCPT-2, SEQ ID NO: 15 (protein, NCPT-2.M11 polypeptide sequence) MGHHHHHHTLSSPNSKNEKALGRKINSWESSRSGHSFLSNLHLRNGELVIHEKGFYYIYSQTYFRFQEEIKENTKNDKQMVQYIYKYTSYPDPILLMKSARNSCWSKDAEYGLYSIYQGGIFELKENDRIFVSVTNEHLIDMDHEASFFGAFLVGGGGGGTSEETISTVQEKQQNISPLVRERGPQRVAAHITGTRGRSNT | 0.47 | significantly higher than that of CPT | –
7 | NCPT-1.M6: MG+His6+NCPT-1 with linker GGSGGGG, SEQ ID NO: 10 (protein, NCPT-1.M6 polypeptide sequence) MGHHHHHHTLSSPNSKNEKALGRKINSWESSRSGHSFLSNLHLRNGELVIHEKGFYYIYSQTYFRFQEEIKENTKNDKQMVQYIYKYTSYPDPILLMKSARNSCWSKDAEYGLYSIYQGGIFELKENDRIFVSVTNEHLIDMDHEASFFGAFLVGGGSGGGGRVAAHITGTRGRSNT | 0.15 | significantly higher than that of CPT | –
